Laboratory results taken from paper PMC5365139.

Columns and labels:
Test in all cases: fluorescence anisotropy
[1] = target: T1, InrS H21L (Synechocystis PCC 6803, UniProt Q55554 61-167, H81L)
T1 sequence: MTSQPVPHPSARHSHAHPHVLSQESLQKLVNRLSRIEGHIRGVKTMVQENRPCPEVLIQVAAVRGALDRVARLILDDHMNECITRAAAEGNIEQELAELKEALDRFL

[2] = target: T2, InrS (Synechocystis PCC 6803, UniProt Q55554)
T2 sequence: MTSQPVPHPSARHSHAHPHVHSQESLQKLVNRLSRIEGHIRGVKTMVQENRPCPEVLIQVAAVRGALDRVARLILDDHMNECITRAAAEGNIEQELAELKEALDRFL

[3] = target: T3, InrS H21E (Synechocystis PCC 6803, UniProt Q55554 61-167, H81E)
T3 sequence: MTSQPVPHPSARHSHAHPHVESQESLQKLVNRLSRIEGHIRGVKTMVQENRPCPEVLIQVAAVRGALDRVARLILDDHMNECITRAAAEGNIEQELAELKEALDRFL

Measured: binding result

B1: nikProFA (dsDNA)
DNA 1: AAATCCATATCCCCCTTCCCCCCAGAGGGTATT
DNA 2: AATACCCTCTGGGGGGAAGGGGGATATGGATTT
binds: all assays above
